± gives the uncertainty stated by the source.
Assay: amyloid nucleation score (Sup35N fusion, yeast selection) (log enrichment); library NNK1; higher = more nucleation; inactive = no reads after selection
How it was run: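 Sup35N fusions to peptides of 20 random codons were expressed in psi-negative yeast, induced 24 hours with 100 μM copper sulfate, and grown 7 days at 30°C on medium lacking adenine and uracil. Input and output plasmid inserts were sequenced by Illumina. The nucleation score is the DiMSum log enrichment of output over input reads, centred on the mode score of non-aggregating sequences. Sequences with under 100 input reads were excluded.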

Row | Substance | amyloid nucleation score
1 | ASNAARLLPDRISGSEAF | 0.591 ± 0.71
2 | ASRMFMSFLYYSMLLWLLNV | -1.66 ± 0.85
3 | ASRSCIVSRRASGPHVCCQV | 0.098 ± 0.91
4 | ASRYGDF | 0.555 ± 0.42
5 | ATQNLKY | 0.824 ± 0.79
6 | AVCVMWANGLVYMTSLECER | -0.679 ± 0.35
7 | AVCVPVSKDGPVKGKFINKY | 0.329 ± 0.41
8 | AVELAKSPLWIPKLGYVMNQ | 0.233 ± 0.48
9 | AVFDSKLFLQSWVASTGIRV | inactive
10 | AVFGTIIESFMSGG | 0.399 ± 0.34
11 | AVFLVRAPSTRGLARMVDLA | inactive
12 | AVGGDSMYSLQSGYKLILAS | 0.288 ± 0.35
13 | AVGRPPIRYRNTHSISTDSE | 0.565 ± 0.31
14 | AVLNFIQVVVVVEVVGCYQH | 2.68 ± 0.28
15 | AVSIRCFGRMMTLSGSKIAG | 0.838 ± 0.25
16 | AWGRLAGYRRGSWMYYCCNS | 0.435 ± 0.82
17 | AWILRWKEIPMEYSLSS | 0.202 ± 0.56
18 | AWNCHKFND | 0.668 ± 0.78
19 | AWQRVSVKFELGDIGPEGLY | -0.668 ± 0.31
20 | AYEGKGITGHLIFSWKSKSL | 1.55 ± 0.13
21 | AYFMGHCLKGPRVTLVGCKT | 0.525 ± 0.65
22 | AYGKRTNTRICDNKTLGVSS | -0.745 ± 2.4
23 | AYHNDWR | -0.85 ± 0.76
24 | AYIDKMCTPYNKGRLLMHWY | 1.97 ± 0.48
25 | AYIVNIELGNRTS | 7.04 ± 0.056

Row | Substance | amyloid nucleation score
26 | AYNAECSVWSRRCSIAVMDL | 0.757 ± 0.58
27 | AYNDSAVGRAGGLFVVGLFV | -0.51 ± 0.58
28 | AYSSARHFFTLTFKEIRFGR | 0.141 ± 1.4
29 | AYWSGTYEGEWYLVDRQFYW | 0.542 ± 1
30 | AYYSRNIIKPGKKVEVPKMG | -1.01 ± 0.72
31 | CAFCI | -0.766 ± 1
32 | CAHIY | -0.747 ± 0.99
33 | CAKGCCD | -0.344 ± 0.72
34 | CALAIRIVCS | inactive
35 | CASRFMCGPTINKWVR | -1.02 ± 1.1
36 | CAYVVVLLCSVLVDAGYVCR | 1.94 ± 0.17
37 | CCADPMHYTFHSSNLVFPLM | 0.294 ± 0.37
38 | CCERGWS | 0.156 ± 0.72
39 | CDGVMKSGVKKMSTSRDWFM | inactive
40 | CDIIYFACGDREV | inactive
41 | CDLLRSLTVS | 0.946 ± 0.6
42 | CDNSLDSIWFVSVSWN | 1.16 ± 0.69
43 | CDVLFGLLSLRYLPSSLRIG | -0.434 ± 0.48
44 | CFCPSKGDTDRLWAHFSARF | -0.093 ± 0.45
45 | CFFEILLSMISTMPRNVKLR | -0.28 ± 0.41
46 | CFFMEFYVPNSIIIYVRTPV | -1.89 ± 0.96
47 | CFINSDVMVLLVTTYHYS | 7.321 ± 0.071
48 | CFRYVCIILMSVLMNYNFVY | -0.05 ± 0.2
49 | CFSLLNYSCFSCIDLFHPLY | 5.23 ± 0.084
50 | CFSMILVYYVLFARFVSWSM | 0.15 ± 0.41

Row | Substance | amyloid nucleation score
51 | CFVVHMSKEFYGRYFVRRIN | inactive
52 | CGDMKRSHGCYFGPRNRFCW | 0.517 ± 0.47
53 | CGFALSRQVDILILLADSYD | 0.167 ± 1.1
54 | CGHMR | 0.327 ± 0.33
55 | CGIING | -1.08 ± 1.7
56 | CGLKNFGVLSFRSIDCQRKG | -1.48 ± 1.1
57 | CGLLVVLRANVFILCGYK | 0.399 ± 0.24
58 | CGSRVDGSCTAGTSIWVVDV | 0.528 ± 0.66
59 | CGWSSMIVP | 0.343 ± 0.63
60 | CHNVVGSVKRIRSKFMKCFV | inactive
61 | CHYGDPSGWGQLTPSTWTGE | 0.573 ± 0.42
62 | CIFFVNTGHGYLWQDYAHSN | 3.58 ± 0.15
63 | CISLFFVKCGRQAAHPQSRR | 8.295 ± 0.062
64 | CITFMVRYGLRLHR | 0.089 ± 0.58
65 | CIVYFSCLMYHWILDC | 0.422 ± 0.65
66 | CIWQWVKDNDDNKVAS | -1.04 ± 0.46
67 | CIYELRGLVRFWSHRVNRER | -0.445 ± 0.45
68 | CKGFK | inactive
69 | CKSESRFLFAYNSLCLKSMG | -0.043 ± 0.3
70 | CKTLMLCTRICFDANQLASR | 1.71 ± 0.78
71 | CLAGLYNCGGR | 0.679 ± 0.65
72 | CLATLSMSYLLFVSGLRRIK | -0.554 ± 0.59
73 | CLDMVWDLTVMFMF | 1.11 ± 0.19
74 | CLEVFKNGCRNLRTGRVINR | 1.03 ± 0.9
75 | CLFDATVLNVLYQEIAEPRR | inactive

Row | Substance | amyloid nucleation score
76 | CLGHISVMNVTASNANYHFS | 7.237 ± 0.053
77 | CLIRIVKF | 1.08 ± 0.7
78 | CLIVKRIFFYLNYHKKVELL | -0.573 ± 1.4
79 | CLIYYVYSRWIIPMYITGRR | -0.27 ± 0.81
80 | CLNGMQPHKWFGMCVWVCPC | -0.212 ± 0.58
81 | CLQCKCYNNCVQLRVTVGCM | 1.37 ± 0.52
82 | CLSDGTMAFPCPGRQDVRTV | -0.015 ± 0.34
83 | CLSSSH | -0.322 ± 0.38
84 | CLSYI | -0.172 ± 0.27
85 | CLTKEYVRGFLNPGRHRTRQ | -0.271 ± 0.36
86 | CLVERATITHFASCVEAYFY | -0.224 ± 1.4
87 | CMGPYFSGMSEFRGTLSVHA | -0.491 ± 1.9
88 | CMLREPKRKYPVKIMCSLLV | inactive
89 | CMSLYRGFLTPEWNIFVWLA | 0.514 ± 0.61
90 | CMSVVNLRCPDRTLVSLLPY | -0.326 ± 1.1
91 | CMVMFCCWNMWVDSVH | 7.237 ± 0.069
92 | CMWSRRWGTLLASILVLSYG | 0.081 ± 0.34
93 | CNIMRSLWLGAIVCMSTMYC | -0.396 ± 0.73
94 | CNIVFSPGTDNVVEIRVRKL | 4.15 ± 0.062
95 | CNLSTCSFHFHFLT | 4.53 ± 0.11
96 | CNMHATETLNIRCVNSDAC | 0.046 ± 1.6
97 | CPVFQHDDKDWLGVFKWLRN | -1.32 ± 2.4
98 | CQNYSHLWGEVTEWLCQRGP | 3.39 ± 0.17
99 | CQRAFI | -0.041 ± 0.77
100 | CRASYGFHVQRDALDR | -0.438 ± 0.75

Row | Substance | amyloid nucleation score
101 | CRFKYHLRV | -1.21 ± 2.4
102 | CRGNLIL | -0.578 ± 0.29
103 | CRHLFNWASWSTFTRIS | 0.375 ± 0.23
104 | CRLKSMMVRNSWSVCSSGWG | 0.32 ± 0.5
105 | CRLYVVGFFKKL | inactive
106 | CRNSTVGITLIGWTSHFFNI | 1.2 ± 0.76
107 | CRNVRQSCGYIYYCSRKHLA | 0.546 ± 0.49
108 | CRQGMTLAVREPGASTSVYN | 0.47 ± 0.71
109 | CRSHRGHMCSLVSYLAHGSS | inactive
110 | CRVMEKIEVCYIRYFFSWLD | 0.574 ± 0.39
111 | CRYTITFLVQKYLLDFFA | -0.074 ± 0.35
112 | CSCVVVNCNWYG | 8.609 ± 0.071
113 | CSDSVGSIYSHVRSGGLE | inactive
114 | CSGNSSGVRCMVRSNRS | 0.523 ± 0.38
115 | CSGTICLIIRKLAVILTSQR | inactive
116 | CSGYDGNSSYNGSNPVSFND | 0.056 ± 0.77
117 | CSILYAAPKIRQSARFLMLS | 0.451 ± 0.32
118 | CSLKKSMQNYEFHFWFLFIV | -0.757 ± 0.62
119 | CSLLLMYIKNELMIRSFGRF | inactive
120 | CSLLSYK | -1.63 ± 2.7
121 | CSLSRVNHDLMVKDSSKEQR | 4.3 ± 0.073
122 | CSSFAQ | 0.549 ± 0.31
123 | CSSPRTTLEYWNCFFDHWWS | 2.64 ± 0.2
124 | CSWFVYSNFFSHQMADMEWL | 0.183 ± 0.58
125 | CTDSEAKGCDFFGRISVNVY | 0.689 ± 0.73
